How the values were obtained:
AdipoR1 = biological target: T1, AdipoR1 (Mus musculus, UniProt Q91VH1); experiment: Calcium imaging in C2C12 myocytes (fura-2); type: cell-based; parameters: endogenous in cells; host or cells: mouse C2C12 myocytes (differentiated from myoblasts)
T1 sequence (Q91VH1 1-375): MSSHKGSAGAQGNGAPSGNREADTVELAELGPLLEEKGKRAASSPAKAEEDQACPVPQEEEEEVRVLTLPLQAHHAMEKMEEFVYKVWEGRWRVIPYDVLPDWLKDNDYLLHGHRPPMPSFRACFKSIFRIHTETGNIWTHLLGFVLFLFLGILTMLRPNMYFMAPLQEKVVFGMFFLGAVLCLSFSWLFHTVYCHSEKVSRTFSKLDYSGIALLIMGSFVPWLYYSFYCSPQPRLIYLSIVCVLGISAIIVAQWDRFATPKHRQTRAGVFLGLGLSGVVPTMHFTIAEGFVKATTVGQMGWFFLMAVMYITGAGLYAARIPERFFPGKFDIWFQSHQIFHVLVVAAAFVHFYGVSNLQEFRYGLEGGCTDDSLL
Procedure: C212 myocytes cultured on glass base dishes (IWAKI) were treated with 2.5 μM fura-2/AM for 30 min. Fluorescence was measured with an Aquacosmos Calcium Imaging system (Hamamatsu Photonics). Ligands were delivered through the superfusing Ringer's solution (140 mM NaCl, 5.6 mM KCl, 5 mM HEPES, 2.0 mM sodium pyruvate, 1.25 mM KH2PO4, 2.0 mM CaCl2, 2.0 mM MgCl2, 9.4 mM D-glucose (pH 7.4)). For the calcium chelating experiment, EGTA solution (140 mM NaCl, 5.6 mM KCl, 5 mM HEPES, 2.0 mM sodium pyruvate, 1.25 mM KH2PO4, 2.0 mM MgCl2, 5.0 mM EGTA-2Na, 9.4 mM D-glucose (pH 7.4) was used for the bath solution. Fura-2 fluorescence ratios were calibrated to calcium ion signals.

AMPK [1] = experiment: AMPK phosphorylation in C2C12 myocytes (immunoblotting); type: cell-based, mouse; conditions: C2C12 myocytes, adiponectin 30 μg/ml
Procedure: (§1) The mouse C2C12 myoblasts were grown in 90% Dulbecco's modified high glucose Eagle's medium containing 10% (v/v) fetal bovine serum. When the cells reached 80% confluent, the myoblasts were induced to differentiate into myocytes by replacing the medium with a low serum differentiation medium (98% Dulbecco's modified high glucose Eagle's medium, 2.5% (v/v) horse serum). The medium was changed daily. The C2C12 cells were transfected by using Pofectamine 2000 (Invitrogen) and following the manufacturer's instructions.

PGC-1α = PGC-1α acetylation (acetyl-lysine on immunoprecipitates) in C2C12 myocytes; type: cell-based, mouse; conditions: treatment for 2 hr
Procedure: as §1

C2C12 myocytes = experiment: NAD+/NADH measurements in C2C12 myocytes; type: cell-based, mouse; conditions: C2C12 myocytes treated with adiponectin
Procedure: NAD^+ and NADH nucleotides were directly measured by the method described in the following document (Nature, 458, 1056-1060 (2009)). Whole skeletal muscles or two 10 cm dishes of C2C12 myocytes were homogenized in 200 μl of an acid extraction buffer to measure the NAD^+ concentration, or 200 μl of alkali extraction to obtain the NADH concentration. Next, homogenates were neutralized and the concentration of nucleotides was measured fluorimetrically after an enzymatic cycling reaction using 5 μl of a sample. Values for both nucleotides were detected within the linear range. NAD^+/NADH ratios were calculated by comparing the ratios obtained from each animal or from parallel cell dishes in each experiment.

[2] = Plasma adiponectin level after intravenous injection of adiponectin; type: in vivo; conditions: 30 μg per 10 g body weight intravenously through inferior vena cava catheter, mice
Source text: (§2) Mouse full-length adiponectin was generated as described in the following documents (Nature Med. 8, 1288-1295 (2002); Nature Med. 7, 941-946 (2001); Nature 423, 762-769 (2003)).

AMPK [3] = experiment: AMPK phosphorylation in vivo (skeletal muscle and liver, immunoblotting); parameters: species or system mice; conditions: adiponectin 30 μg per 10 g body weight, 10 min
Procedure: as §2
Real-time PCR was carried out according to the method described in the following documents (Nature Med. 13, 332-339 2007); Nature 423, 762-769 (2003); J. Biol. Chem. 281, 8748-8755 (2006)). Total RNA was prepared from cells or tissues by using Trizol (Invitrogen) according to the manufacturer's instructions. Quantification of mRNA was conducted using a real-time PCR method (Nature 423, 762-769 (2003)) with slight modifications. The procedures used for immunoblotting are described in the following documents (Nature Med. 7, 941-946 (2001); J. Biol. Chem. 281, 26602-26614 (2006); J. Biol. Chem. 281, 8748-8755 (2006)). The livers or muscles were freeze-clamped in liquid nitrogen in situ (Nature Med. 7, 941-946 (2001); J. Biol. Chem. 281, 26602-26614 (2006); J. Biol. Chem. 281, 8748-8755 (2006)).

B1: adiponectin: recombinant murine full-length adiponectin, internal ligand of adiponectin receptor 1 (protein, UniProt Q60994 1-247, looked up)
chain: MLLLQALLFLLILPSHAEDDVTTTEELAPALVPPPKGTCAGWMAGIPGHPGHNGTPGRDGRDGTPGEKGEKGDAGLLGPKGETGDVGMTGAEGPRGFPGTPGRKGEPGEAAYVYRSAFSVGLETRVTVPNVPIRFTKIFYNQQNHYDGSTGKFYCNIPGLYYFSYHITVYMKDVKVSLFKKDKAVLFTYDQYQEKNVDQASGSVLLHLEVGDQVWLQVYGDGDHNGLYADNVNDSTFTGFLLYHDTN
modifications: full-length
For B1, the “dose dependence of calcium response” value (AdipoR1) was “dose-dependent responses”, the “intracellular calcium ion concentration (fura-2-based fluorescent imaging)” value (AdipoR1; adiponectin 30 μg/ml, 1 min) was “increased” and the “phosphorylation of AMPK α-subunits at Thr 172” value (AMPK [1]) was “increased”. The PGC-1α acetylation (PGC-1α) was “decreased”, the “NAD+ and NADH contents” value (C2C12 myocytes) was “increased” and the “NAD+/NADH ratio” value (C2C12 myocytes) was “increased”. For the same molecule, the plasma adiponectin levels [2] was “approximately 30 μg/ml”, the “phosphorylation of AMPK in liver” value (AMPK [3]; both genotypes (control and muscle-R1KO)) was “increased” and the “phosphorylation of AMPK in muscle” value (AMPK [3]; control littermates) was “increased”.

Source: US20130273567A1, “Screening Method for Candidate Agonist Compounds for Adiponectin Receptor I” (priority 2010, published 2013)
